Assay results as given in patent US6607709 (CURATORS OF THE UNIVERSITY OF MISSOURI, dated 2003).
Positions of bridges follow the written chain, without caps; N, C: chain ends. Non-standard residues stand in square brackets, D forms with d. Re(V)O = rhenium(V) oxo core coordinated by cysteine thiolates and amide nitrogens

B1: ReCCMSH (peptide)
peptide: Ac-CCEH[dF]RWCKPV-NH2
modifications: bridge 1-2-8 via Re(V)O; not fully specified; printed as NAc-Cys-Cys-Glu-His-D-Phe-Arg-Trp-Cys-Lys-Pro-Val-NH2; also: Re(V)O complex via thiolates of Cys3, Cys4, Cys10 and amide N of Cys4
notes: Nonradioactive rhenium complex of the APOMSH analog with an additional N-terminal Cys (Cys3); also called ReCCMSH analog
B2: ReMSH (peptide)
peptide: CEHFRWCKPV
modifications: not fully specified; N-terminal acetyl; D-Phe at position 7 (α-MSH numbering); C-terminal amide; cyclized by a Re(V)O core coordinated by the thiolate sulfurs of Cys4 and Cys10 and the amide nitrogens of Trp9 and Cys10
notes: Nonradioactive rhenium complex of APOMSH; also called rhenium α MSH analog ReMSH; ReMSH complex
B3: Cys^4,10, D-Phe^7-α-MSH4-13 (APOMSH) (peptide)
peptide: Ac-CEH[dF]RWCKPV-NH2
modifications: disulfide 1-7
SMILES: CC(=O)N[C@H]1CSSC[C@@H](C(=O)N[C@@H](CCCCN)C(=O)N2CCC[C@H]2C(=O)N[C@H](C(N)=O)C(C)C)NC(=O)[C@H](Cc2c[nH]c3ccccc23)NC(=O)[C@H](CCCNC(=N)N)NC(=O)[C@@H](Cc2ccccc2)NC(=O)[C@H](Cc2c[nH]cn2)NC(=O)[C@H](CCC(=O)O)NC1=O
notes: Synthetic cyclic α-MSH analog without metal; starting peptide for ReMSH; also called metal-free peptide

Experiments:
[1] = biological target: T1, α-MSH receptor on B16-F1 murine melanoma cells (murine, UniProt Q01727 1-315); test: cell-based or functional assay
T1 sequence (Q01727 whole entry): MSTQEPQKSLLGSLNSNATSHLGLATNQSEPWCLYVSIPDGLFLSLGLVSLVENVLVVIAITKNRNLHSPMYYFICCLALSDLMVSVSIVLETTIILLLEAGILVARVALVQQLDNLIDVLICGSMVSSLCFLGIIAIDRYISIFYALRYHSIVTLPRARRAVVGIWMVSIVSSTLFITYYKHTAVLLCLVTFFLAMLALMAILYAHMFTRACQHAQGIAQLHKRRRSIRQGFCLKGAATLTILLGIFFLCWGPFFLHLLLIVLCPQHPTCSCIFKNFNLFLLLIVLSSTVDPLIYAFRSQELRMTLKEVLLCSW

[2] = biological target: T1, α-MSH receptor on B16-F1 murine …; test: competitive receptor binding on B16-F1 murine melanoma cells
Method: (§1) Quantitative receptor binding assays were carried out following a previously described method (Siegrist W., 1988; Sahm, U. G., 1994). […] The cells were rinsed with PBS, lysed with 1 M NaOH and counted in a 1275 minigamma gamma counter from LKB Wallac.
The ^99mTc- and ^188Re-labeled analogs of ReCCMSH were virtually inert to substitution in 10 mM Cys competition assays, while the ^99mTc- and ^188Re-labeled analogs of ReMSH were readily exchanged under the same assay conditions (Table 2). This increased stability of ReCCMSH probably resulted from the presence of an additional sulfur donor atom and from decreased backbone strain in the molecule due to the increased ring size. […] The ability of the ReCCMSH analog to stimulate melanin production was almost identical to APOMSH (Table 3).

[3] = biological target: T1, α-MSH receptor on B16-F1 murine …; test: competitive receptor binding on B16-F1 murine melanoma cells, displacement of ^125I-[Nle4, D-Phe7]-α-MSH, 4° C., 8 hours
Method: as §1
The bioactivities of APOMSH and the ReMSH complex were assayed by measuring stimulation of melanin production by B16-F1 murine melanoma cells. The $EC50$ values for melanin synthesis by APOMSH and ReMSH were 2.6 ×10^-11 and 5.4 ×10^-10, respectively. […] Receptor binding assays were performed with APOMSH and ReMSH on B16-F1 murine melanoma cells.

[4] = biological target: T1, α-MSH receptor on B16-F1 murine …; test: cell-based or functional assay; remark: listed apart in the source

Binder	EC50 (M), melanin production by B16-F1 murine melanoma cells [1] [M]	fold higher receptor binding affinity than ReMSH [2] [fold]	Ki [3] [nM]	fold decrease in the ability to stimulate melanin production compared to APOMSH [4] [fold]	fold decrease in receptor binding affinity compared to APOMSH [2] [fold]
B1	3.5e-11	~25	2.9	–	–
B2	5.4e-10	–	66	~20	~100
B3	2.6e-11	–	0.68	–	–
